Laboratory results from patent US20230020729A1 (Memorial Sloan Kettering, published 2023).

B1: ET200-124 scFv (scFv)
scFv: SYVLTQPPSVSVAPGKTARISCGGNDIGSKSVFWYQQRPGQAPVLVVYDDSDRPSGLPERFSGFNSGNTATLTISRVEAGDEADYYCQVWDSSSDHYVFGTGTKVTVLGSRGGGGSGGGGSGGGGSLEMAQVQLVESGGGLVQPGRSLRLSCAASGFTFDDYAMHWVRQAPGKGLEWVSGISWNSGSIGYADSVKGRFTISRDNAKNSLYLQMNSLRAEDTALYYCAKDITYGSGSYGAFDIWGQGTMVTVSS
notes: VL-linker-VH; screened as scFv phage clone
B2: ET200-005 scFv (scFv)
scFv: QPVLTQPPSVSVVPGKTARITCGGKNIGSKSVHWYQQKPGQAPVVVIHYDSDRPSGIPERFSGSNSGNTATLTISRVEAGDEADYYCQVWDSSSDHPYVFGTGTKVTVLGSRGGGGSGGGGSGGGGSLEMAQVQLVQSGAEVKKPGASVKVSCKASGYTFTNYGISWVRQAPGQGLEWMGWISAYNGNTNYAHKLQGRVTMTTDTSTSTANMELRSLRPDDTAVYYCARSYFGSHDYWGQGTLVTVSS
notes: as for B1
B3: ET200-113 scFv (scFv)
scFv: QSVVTQPPSVSAAPGQKVTISCSGSSSNIGNNYVSWYQQLPGTAPKLLIYDNNKRPSGIPDRFSGSKSGTSATLGITGLQTGDEADYYCGTWDSSLSAAYVFGTGTKVTVLGSRGGGGSGGGGSGGGGSLEMAQVQLVQSGAEVKKPGASVKVSCKASGYSFTSYTISWVRQAPGQGLEWMGWVSTYNGLRNYAQNLQGRVTMTTDTLTTTAYMELRSLRSDDTAVYYCVREGSPDYGDFAAFDYWGQGTLVTVSS
notes: as for B1
B4: ET200-009 scFv (scFv)
scFv: QSVLTQPPSASGTPGQTVTISCSGSNSNIGSNYVYWYQQLPGTAPKLLIYRNNQRPSGVPDRFSGSKSGTSASLAISGLRSEDEADYYCAAWDDSLSAYVFGTGTKVTVLGSRGGGGSGGGGSGGGGSLEMAQVQLVQSGAEVKKPGASVKVSCKASGYTFTSYGISWVRQAPGQGLEWMGWISAYNGNTNYAQKLQGRVTMTTDTSTSTAYMELRSLRSDDTAVYYCARSSGNMVSWKDMWGQGTLVTVSS
notes: as for B1
B5: ET200-112 scFv (scFv)
scFv: QAVLTQPPSASGTPGQRVTISCSGSSSNIGSNTVNWYQQLPGTAPKLLMYSNDQRPSGVPDRFSGSKSGTSASLAISGLQSEDEADYYCAAWDDSLNGYVFAAGTQLTVLSSRGGGGSGGGGSGGGGSLEMAQVQLQQWGAGLLKPSETLSLTCAVYGGSFSGYYWSWIRQPPGKGLEWIGEINHSGSTNYNPSLKSRVTISVDTSKNQFSLKLSSVTAADTAVYYCAREGLDAFDIWGQGTMVTVSS
notes: as for B1
B6: ET200-125 scFv (scFv)
scFv: NFMLTQPHAVSESPGKTVTISCTRSSGSIASNYVQWYQQRPGSSPRTVIYEDNQRPSGVPGRFSGSIDSSSNSASLTISGLKTEDEADYYCQSYDSTSVLFGGGTKLTVLGSRGGGGSGGGGSGGGGSLEMAEVQLVQSGAEVKKPGSSVKVSCKASGGTFSSNSLSWVRQAPGQGLEWMGRIFPILGITNYAQKFQGRVTITADKSTSTAYMELSSLRSEDTAVYYCARGNYQWYDAFDIWGQGTMVTVSS
notes: as for B1
B7: ET200-011 scFv (scFv)
scFv: QSVVTQPPSVSAAPGQRVTISCSGSSSNISIYDVSWYQQLPGTAPKLLIYGNNKRPSGIADRFSGSTSGTSATLGITGLQTGDEADYYCGTWDDSLSGGVFGGGTKLTVLGSRGGGGSGGGGSGGGGSLEMAQMQLVQSGAEVKKPGSSVKVSCEASGGTLSSYAINWVRQAPGQGLEWMGGIIPMFGTAHYAQKFQGRVTITADESTKTAYMELSSLRSEDTAVYYCARGVHYASFDHWGQGTLVTVSS
notes: as for B1
B8: ET200-121 scFv (scFv)
scFv: QSVLTQPPSVSGAPGQRVTVSCTGSRSNIGAGYDVHWYQQLPGTAPKLLIYGNSNRPPGVPDRFSGSKSGTSASLVITGLQAEDAADYYCQSYDNTVRESPYVFGTGTKVTVLGSRGGGGSGGGGSGGGGSLEMAEVQLVQSGAEVKKPGASVKVSCKVSGYTLTELSMHWVRQAPGKGLEWMGGFDPEDGETIYAQKFQGRVTMTEDTSTDTAYMELSSLRSEDTAVYYCATESNLVSRHYYYYGMDVWGQGTTVTVSS
notes: as for B1
B9: ET200-116 scFv (scFv)
scFv: QPVLTQPPSVSVSPGQTAAIPCSGDKLGDKFASWYQQKPGQSPVLVIYQDTKRPSGIPERFSGSNSGNTATLTISGTQAMDEADYYCQTWASGIVVFGGGTKLTVLGSRGGGGSGGGGSGGGGSLEMAQVQLQQSGPGLVKPSQTLSLTCAISGDSVSSNSAAWNWIRQSPSRGLEWLGRTYYRSKWYNDYAVSVKSRITINPDTSKNQFSLQLNSVTPEDTAVYYCARERSGWKGFDYWGQGTLVTVSS
notes: as for B1
B10: ET200-115 scFv (scFv)
scFv: QSVLTQPPSVSGAPGQRVTISCTGSSSNIGARYDVHWYQQLPGTAPRLLISANYDRPSGVPDRFSGSKSGTSASLAITGLQAEDEADYYCQSYDSSVSAWVFGGGTKVTVLGSRGGGGSGGGGSGGGGSLEMAEVQLVQSGAEVKEPGASVRISCQASGYNFISYYMHWVRQAPGQGLEWMGTINPGSGETDYSQKLQGRVTMTRDPSTGTFDMGLSSLTSGDTAVYYCATGLIRGASDAFNIWGRGTMVTVSS
notes: as for B1
B11: ET200-010 scFv (scFv)
scFv: QSALTQPASVSGSPGQSITISCTGTSSDVGGYNSVSWYQQHPGKAPRLMIYDVSNRPSGVSNRFSGSKSGNTASLTISGLQAEDEADYYCSSYTSSSTPLVFGTGTKVTVLGSRGGGGSGGGGSGGGGSLEMAQVQLVQSGAEVKKPGASVKVSCKASGYTFTSYGISWVRQAPGQGLEWMGWISAYNGNTNYAQKLQGRVTMTTDTSTSTAYMELRSLRSDDTAVYYCARGAVAYHDWGQGTLVTVSS
notes: as for B1
B12: ET200-123 scFv (scFv)
scFv: QAVLTQPPSASGTPGQRVTISCSGSSSNIGSNTVNWYQQLPGTAPKLLMYNNDQRPSGVPDRFSGSKSGTSASLAISGLQSEDEADYYCAAWDDSLNGYVFGPGTKVTVLGSRGGGGSGGGGSGGGGSLEMAQVQLVESGAEVKKPGASVKVSCKASGYTFTSYGISWVRQAPGQGLEWMGWISAYNGNTNYAQKLQGRVTMTTDTSTSTAYMELRSLRSDDTAVYYCARDLSRGANPHYYYYYGMDVWGQGTTVTVSS
notes: as for B1
B13: ET200-118 scFv (scFv)
scFv: QAVLTQPASVSGSPGQSITISCTGTSSDVGGYNYVSWYQQHPGKAPKLMIYEVSNRPSGVSNRFSGSKSGNTASLTISGLQAEDEADYYCSSYTSSSTPYVFGAGTKVTVLGSRGGGGSGGGGSGGGGSLEMAEVQLVESGGGLVQPGRSLRLSCAASGFTFDDYAMHWVRQAPGKGLEWVSGISWNSGSIGYADSVKGRFTISRDNAKNSLYLQMNSLRAEDTALYYCAKARWTAVASDHHFDYWGQGTLVTVSS
notes: as for B1

Each binder was assayed against T1, human Fc Receptor-Like 5 (FcRL5), full length, expressed on cells (human, UniProt Q96RD9 16-977) (assay: scFv phage: ELISA on His-tag FcRL5, flow cytometry on FcRL5-overexpressing 3T3 and Raji cells).
T1 construct: also called CD307e; IRTA2
T1 sequence: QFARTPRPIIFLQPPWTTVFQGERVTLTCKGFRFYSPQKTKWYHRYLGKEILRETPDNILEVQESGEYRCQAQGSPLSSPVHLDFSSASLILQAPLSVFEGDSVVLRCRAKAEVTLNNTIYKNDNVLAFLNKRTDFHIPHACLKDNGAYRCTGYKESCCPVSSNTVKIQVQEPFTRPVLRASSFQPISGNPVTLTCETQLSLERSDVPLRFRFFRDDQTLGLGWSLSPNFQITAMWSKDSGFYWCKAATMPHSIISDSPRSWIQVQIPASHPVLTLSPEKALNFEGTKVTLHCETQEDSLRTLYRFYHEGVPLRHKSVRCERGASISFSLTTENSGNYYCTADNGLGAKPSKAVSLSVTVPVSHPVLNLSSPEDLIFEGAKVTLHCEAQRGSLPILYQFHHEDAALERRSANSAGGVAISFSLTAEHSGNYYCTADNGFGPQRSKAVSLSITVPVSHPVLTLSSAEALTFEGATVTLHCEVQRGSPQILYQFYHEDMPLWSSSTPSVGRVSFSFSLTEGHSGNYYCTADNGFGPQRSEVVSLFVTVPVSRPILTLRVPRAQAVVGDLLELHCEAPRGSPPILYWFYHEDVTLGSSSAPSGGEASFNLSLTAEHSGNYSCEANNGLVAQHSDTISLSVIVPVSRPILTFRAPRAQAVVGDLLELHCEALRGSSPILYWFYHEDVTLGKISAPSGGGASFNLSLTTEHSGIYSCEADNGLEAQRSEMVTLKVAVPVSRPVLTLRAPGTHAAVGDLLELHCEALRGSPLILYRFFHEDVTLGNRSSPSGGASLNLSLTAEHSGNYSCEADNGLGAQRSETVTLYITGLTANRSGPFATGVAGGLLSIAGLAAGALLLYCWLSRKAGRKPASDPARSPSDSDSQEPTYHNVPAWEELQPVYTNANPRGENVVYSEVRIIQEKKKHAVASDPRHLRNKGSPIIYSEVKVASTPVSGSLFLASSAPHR
B1: binds.
B2: binds.
B3: binds.
B4: binds.
B5: binds.
B6: binds.
B7: binds.
B8: binds.
B9: binds.
B10: binds.
B11: binds.
B12: binds.
B13: binds.
